Reference: patent US20230242646A1 (JJP BIOLOGICS SP Z O O, published 2023)

Columns and labels:
[1] = target: T1, recombinant C-terminal polyhistidine-tagged human (extracellular) CD89 (Sino Biological) (human, UniProt P24071 22-227); assay: ELISA, coated rhuCD89
T1 construct: extracellular domain; bought protein; also called rhuCD89; soluble monomeric rhuCD89
Method: After extensive washing with PBS/0.05% Tween 20, plates were blocked with PBS/0.05% Tween 20/1% BSA (Roche) for 1 hour at RT. Subsequently, plates were incubated with 50 µL titrated (in block buffer) purified mouse anti-human CD89 antibody/well for 1 hour at RT. […] After extensive washing in PBS/0.05% Tween 20, binding of antibodies on rhuCD89 was determined with 1:5,000 diluted horseradish peroxidase (HRP)-conjugated goat anti-mouse IgG Fcy-specific antibodies (Jackson ImmunoResearch) for 1 hour at RT, followed by a ready-to-use solution of TMB substrate (Invitrogen) for colorimetric detection.
After extensive washing with PBS/0.05% Tween 20, plates were blocked with PBS/0.05% Tween 20/1% BSA (Roche) for 1 hour at RT. […] After extensive washing in PBS/0.05% Tween 20, binding of antibodies on rhuCD89 was determined with 1:5,000 diluted horseradish peroxidase (HRP)-conjugated goat anti-human IgG Fcy-specific antibodies (Jackson ImmunoResearch) for 1 hour at RT, followed by a ready-to-use solution of TMB substrate (Invitrogen) for colorimetric detection.

[2] = target: T2, chimeric human/cynomolgus monkey CD89-II on HEK293F cells (human/cynomolgus chimera, UniProt P24071 22-287); assay: FACS, 10 µg/mL, transiently transfected HEK293F
T2 construct: also called dIle47 - Ile71 human EC1-CD89; II (47-71)
T2 chain: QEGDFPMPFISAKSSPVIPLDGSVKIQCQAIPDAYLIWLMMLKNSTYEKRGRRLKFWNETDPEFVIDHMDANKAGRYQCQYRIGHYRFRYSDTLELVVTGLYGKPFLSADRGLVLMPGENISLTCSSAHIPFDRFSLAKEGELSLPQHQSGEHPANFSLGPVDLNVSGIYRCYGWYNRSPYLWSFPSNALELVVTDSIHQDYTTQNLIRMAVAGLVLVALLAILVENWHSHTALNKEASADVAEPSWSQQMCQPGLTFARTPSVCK
Method: (§1) To this end, transient transfected HEK293F cells were put at 10 × 10⁶ cells/mL in ice-chilled phosphate-buffered saline containing 0.1% BSA (Sigma)/0.05% NaN₃ (PBS/BSA/NaN₃) supplemented with 50 µg/mL human IgGs (blocking FcY receptors; Sigma) for 10 minutes at 4° C. Then, 10 µL/tube (i.e., 0.1 × 10⁶ cells) of these cells were incubated with or without 100 µL purified mouse anti-human CD89 antibody at 10 µg/mL (in PBS/BSA/NaN₃) for 30 minutes at 4° C. […] After extensive washing in PBS/BSA/NaN₃, cells were subsequently incubated with 1:200 diluted PE-conjugated goat anti-mouse IgG Fcy-specific antibodies (Jackson ImmunoResearch) for 30 minutes at 4° C. After extensive washing in PBS/BSA/NaN₃, cells were fixed in 2% formaldehyde in PBS/BSA/NaN₃ for 30 minutes at 4° C.

[3] = target: T3, chimeric human/cynomolgus monkey CD89-IV on HEK293F cells (human/cynomolgus chimera, UniProt P24071 22-287); assay: FACS, 10 µg/mL, transiently transfected HEK293F
T3 construct: also called dArg97 - Gly121 human EC1-CD89
T3 chain: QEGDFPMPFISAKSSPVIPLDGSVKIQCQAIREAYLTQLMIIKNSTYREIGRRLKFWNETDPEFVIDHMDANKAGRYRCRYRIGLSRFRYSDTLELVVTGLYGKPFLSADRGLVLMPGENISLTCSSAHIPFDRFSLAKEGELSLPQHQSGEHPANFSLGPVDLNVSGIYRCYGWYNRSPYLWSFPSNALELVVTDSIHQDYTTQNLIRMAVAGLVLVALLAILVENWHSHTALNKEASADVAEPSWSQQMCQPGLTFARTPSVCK
Method: as §1

[4] = target: T4, chimeric human/cynomolgus monkey CD89-I on HEK293F cells (human/cynomolgus chimera, UniProt P24071 22-287); assay: FACS, 10 µg/mL, transiently transfected HEK293F
T4 construct: also called dGln22 - Lys46 human EC1-CD89; I (22-46)
T4 chain: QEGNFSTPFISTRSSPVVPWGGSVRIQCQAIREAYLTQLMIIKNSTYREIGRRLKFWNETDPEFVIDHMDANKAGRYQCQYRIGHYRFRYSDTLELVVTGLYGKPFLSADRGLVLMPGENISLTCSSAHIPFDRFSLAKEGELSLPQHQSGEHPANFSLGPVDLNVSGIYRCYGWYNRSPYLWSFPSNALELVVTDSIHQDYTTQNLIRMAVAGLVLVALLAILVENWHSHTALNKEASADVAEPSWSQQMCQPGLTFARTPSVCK
Method: as §1

[5] = target: T5, membrane-bound full-length human CD89 on HEK293F cells (human, UniProt P24071 22-287); assay: FACS HEK293F-huCD89, 10 ug/mL; competitor PE-A59
T5 construct: 2 or transient transfectants; also called membrane human CD89; human FcaRI
Method: (§2) Then, 10 µL/tube (i.e., 0.1 × 10⁶ cells) of these cells were incubated with or without 100 µL purified mouse anti-human CD89 antibody at 10 µg/mL (in PBS/BSA/NaN₃) for 30 minutes at 4° C. […] After extensive washing in PBS/BSA/NaN₃, cells were fixed in 2% formaldehyde in PBS/BSA/NaN₃ for 30 minutes at 4° C.

[6] = target: T6, membrane full-length bovine Fcgamma2R on HEK293F cells (bovine); assay: FACS, transiently transfected HEK293F
T6 construct: also called bovine Fcy2R
T6 chain: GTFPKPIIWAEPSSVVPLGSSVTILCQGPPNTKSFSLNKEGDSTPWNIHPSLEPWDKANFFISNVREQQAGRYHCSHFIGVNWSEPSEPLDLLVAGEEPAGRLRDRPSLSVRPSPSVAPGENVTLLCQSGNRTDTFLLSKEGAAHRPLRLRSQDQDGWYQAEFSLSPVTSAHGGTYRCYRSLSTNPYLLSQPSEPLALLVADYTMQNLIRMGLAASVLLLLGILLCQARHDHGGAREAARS
Method: (§3) To this end, transient transfected HEK293F cells were put at 10 × 10⁶ cells/mL in ice-chilled phosphate-buffered saline containing 0.1% BSA (Sigma)/0.05% NaN₃ (PBS/BSA/NaN₃) supplemented with 50 µg/mL human IgGs (blocking Fcy receptors; Sigma) for 10 minutes at 4° C. Then, 10 µL/tube (i.e., 0.1 × 10⁶ cells) of these cells were incubated with or without 100 µL purified mouse anti-human CD89 antibody at 10 µg/mL (in PBS/BSA/NaN₃) for 30 minutes at 4° C. […] After extensive washing in PBS/BSA/NaN₃, cells were subsequently incubated with 1:200 diluted PE-conjugated goat anti-mouse IgG Fcy-specific antibodies (Jackson ImmunoResearch) for 30 minutes at 4° C. After extensive washing in PBS/BSA/NaN₃, cells were fixed in 2% formaldehyde in PBS/BSA/NaN₃ for 30 minutes at 4° C.

[7] = target: T7, chimeric bovine EC1-Fcgamma2R/human EC2-CD89 on HEK293F cells (bovine/human chimera); assay: FACS, transiently transfected HEK293F
T7 chain: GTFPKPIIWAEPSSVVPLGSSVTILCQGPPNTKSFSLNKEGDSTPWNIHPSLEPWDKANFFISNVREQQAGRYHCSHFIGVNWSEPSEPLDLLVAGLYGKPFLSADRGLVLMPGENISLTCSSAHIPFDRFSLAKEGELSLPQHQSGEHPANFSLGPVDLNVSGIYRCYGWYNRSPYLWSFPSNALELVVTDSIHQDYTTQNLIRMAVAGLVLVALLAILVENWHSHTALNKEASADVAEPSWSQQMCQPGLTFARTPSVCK
Method: as §3

[8] = target: T5, membrane-bound full-length human CD89 …; assay: FACS HEK293F-huCD89, 10 ug/mL; competitor PE-A3
Method: as §2

[9] = target: membrane human CD89 on ex vivo primary human neutrophilic granulocytes or monocytic U937 cells (human, UniProt P24071 22-287); assay: cell-based or functional assay
[10] = target: T8, chimeric human EC1-CD89/bovine EC2-Fcgamma2R (bovine TM and IC) on HEK293F cells (human/bovine chimera); assay: FACS, 10 µg/mL, transiently transfected HEK293F
T8 construct: also called human EC1-CD89 (version with bovine transmembrane-intracellular region)
Method: as §3

[11] = target: T9, chimeric human EC1-CD89/bovine EC2-Fcgamma2R (human TM and IC) on HEK293F cells (human/bovine chimera); assay: FACS, 10 µg/mL, transiently transfected HEK293F
T9 construct: also called human EC1-CD89 (version with human transmembrane-intracellular region)
Method: as §3

[12] = target: T5, membrane-bound full-length human CD89 …; assay: FACS, antibody before secretory IgA on HEK293F-huCD89; IgA detected
Method: Then, 10 µL/tube (i.e., 0.1 x 10⁶ cells) of these cells were incubated with or without 50 µL titrated (in PBS/BSA/NaN₃) purified mouse anti-human CD89 antibody/tube for 30 minutes at 4° C. […] After extensive washing in PBS/BSA/NaN₃, 1:200 diluted PE-conjugated streptavidin (Jackson ImmunoResearch) was added, and incubated for 30 minutes at 4° C. After extensive washing in PBS/BSA/NaN₃, cells were fixed in 4% formaldehyde in PBS/BSA/NaN₃ for 30 minutes at 4° C.

[13] = target: T1, recombinant C-terminal …; assay: ELISA, antibody before serum IgA on coated rhuCD89; IgA detected
Method: After extensive washing with PBS/0.05% Tween 20, plates were blocked with PBS/0.05% Tween 20/1% BSA (Roche) for 1 hour at RT. Subsequently, plates were incubated with 25 µL titrated (in block buffer) purified mouse anti-human CD89 antibody/well for 30 minutes at RT. […] After extensive washing in PBS/0.05% Tween 20, 1:10,000 diluted HRP-conjugated streptavidin (Jackson ImmunoResearch) was added, and incubated for 1 hour at RT, followed by a ready-to-use solution of TMB substrate (Invitrogen) for colorimetric detection.

- EC50 [1]: 0.02 µg/mL
- binding result [2]: binds
- binding result [3]: binds
- binding result [4]: binds
- % blocking of PE-A59 binding [5]: < 25%
- binding result [6]: no binding (tested: 10 µg/mL)
- binding result [7]: no binding (tested: 10 µg/mL)
- % blocking of PE-A3 binding [8]: < 25%
- IC50 (read off the bars), binding of granulocytes to plate-bound serum IgA [Donor 2] [9]: ~0.4 µg/mL
- binding result [10]: binds
- binding result [11]: binds
- IC50 (read off the curve) [12]: ~1 µg/mL
- IC50 (read off the curve) [13]: ~0.06 µg/mL
B1: CD89/IgA blocking mouse anti-human CD89-specific antibody 10E7 (antibody, V domains shown)
VH: EVQLVESGGGLVQPGGSLKLSCAASGLTFSSYGMSWVRQTPDKRLELVATINGNGDITYYPDSVKGRFTISRDNAKNTLYLQMSSLKSEDTAMYYCARDYDYDYAMDYWGQGTSVTVSS
VL: DIQMTQSTSSLSASLGDSVTISCRASQDIINYLNWYQQKPDGTVKLLIYYTSRLHSGVPSRFSGSGSGTEYSLTVSNLEKEDIATYFCQQGKTLPYTFGGGTKLEIK
notes: biotinylated in the Octet assay; also called mouse 10E7
